Results: patent US20090298765A1 (Takeda / Millennium, published 2009)
Non-standard residues stand in square brackets, D forms with d. No end group written: not given here. Phe(3-Cl) = N[C@@H](Cc1cccc(Cl)c1)C(=O)O; Phe(4-Cl) = N[C@@H](Cc1ccc(Cl)cc1)C(=O)O; Phe(4-NH2) = Nc1ccc(C[C@H](N)C(=O)O)cc1; Phe(2-Cl) = N[C@@H](Cc1ccccc1Cl)C(=O)O; Arg(Me) = CNC(=N)NCCC[C@H](N)C(=O)O; Arg(n-Pr) = n-propylated arginine; azaGly = NNC(=O)O

B1: des(1)-[D-Asn2,Arg(Me)9]MS10 (peptide)
peptide: [dN]WNSFGL[Arg(Me)]F-NH2
modifications: N-terminus assumed
SMILES: CNC(=N)NCCC[C@H](NC(=O)[C@H](CC(C)C)NC(=O)CNC(=O)[C@H](Cc1ccccc1)NC(=O)[C@H](CO)NC(=O)[C@H](CC(N)=O)NC(=O)[C@H](Cc1c[nH]c2ccccc12)NC(=O)[C@H](N)CC(N)=O)C(=O)N[C@@H](Cc1ccccc1)C(N)=O
notes: also called Compound No. 216
B2: des(1)-[D-Asn2,D-Trp3,Arg(Me)9]MS10 (peptide)
peptide: [dN][dW]NSFGL[Arg(Me)]F-NH2
modifications: N-terminus assumed
SMILES: CNC(=N)NCCC[C@H](NC(=O)[C@H](CC(C)C)NC(=O)CNC(=O)[C@H](Cc1ccccc1)NC(=O)[C@H](CO)NC(=O)[C@H](CC(N)=O)NC(=O)[C@@H](Cc1c[nH]c2ccccc12)NC(=O)[C@H](N)CC(N)=O)C(=O)N[C@@H](Cc1ccccc1)C(N)=O
notes: also called Compound No. 225
B3: des(1)-[D-Tyr2,Ile3,Arg(Me)9]MS10 (peptide)
peptide: [dY]INSFGL[Arg(Me)]F-NH2
modifications: N-terminus assumed
SMILES: CC[C@H](C)[C@H](NC(=O)[C@H](N)Cc1ccc(O)cc1)C(=O)N[C@@H](CC(N)=O)C(=O)N[C@@H](CO)C(=O)N[C@@H](Cc1ccccc1)C(=O)NCC(=O)N[C@@H](CC(C)C)C(=O)N[C@@H](CCCNC(=N)NC)C(=O)N[C@@H](Cc1ccccc1)C(N)=O
notes: also called Compound No. 228
B4: des(1)-[D-Tyr2,Phe3,AzaGly7,Arg(Me)9]MS10 (peptide)
peptide: [dY]FNSF[azaGly]L[Arg(Me)]F-NH2
modifications: N-terminus assumed
SMILES: CNC(=N)NCCC[C@H](NC(=O)[C@H](CC(C)C)NC(=O)NNC(=O)[C@H](Cc1ccccc1)NC(=O)[C@H](CO)NC(=O)[C@H](CC(N)=O)NC(=O)[C@H](Cc1ccccc1)NC(=O)[C@H](N)Cc1ccc(O)cc1)C(=O)N[C@@H](Cc1ccccc1)C(N)=O
notes: also called Compound No. 254
B5: des(1)-[D-Tyr2,Ser3,Arg(Me)9]MS10 (peptide)
peptide: [dY]SNSFGL[Arg(Me)]F-NH2
modifications: N-terminus assumed
SMILES: CNC(=N)NCCC[C@H](NC(=O)[C@H](CC(C)C)NC(=O)CNC(=O)[C@H](Cc1ccccc1)NC(=O)[C@H](CO)NC(=O)[C@H](CC(N)=O)NC(=O)[C@H](CO)NC(=O)[C@H](N)Cc1ccc(O)cc1)C(=O)N[C@@H](Cc1ccccc1)C(N)=O
notes: also called Compound No. 226
B6: des(1)-[D-Tyr2,Thr3,Arg(Me)9]MS10 (peptide)
peptide: [dY]TNSFGL[Arg(Me)]F-NH2
modifications: N-terminus assumed
SMILES: CNC(=N)NCCC[C@H](NC(=O)[C@H](CC(C)C)NC(=O)CNC(=O)[C@H](Cc1ccccc1)NC(=O)[C@H](CO)NC(=O)[C@H](CC(N)=O)NC(=O)[C@@H](NC(=O)[C@H](N)Cc1ccc(O)cc1)[C@@H](C)O)C(=O)N[C@@H](Cc1ccccc1)C(N)=O
notes: also called Compound No. 227
B7: [D-Tyr1,Ala3,AzaGly7,Arg(Me)9]MS10 (peptide)
peptide: [dY]NANSF[azaGly]L[Arg(Me)]F-NH2
modifications: N-terminus assumed
SMILES: CNC(=N)NCCC[C@H](NC(=O)[C@H](CC(C)C)NC(=O)NNC(=O)[C@H](Cc1ccccc1)NC(=O)[C@H](CO)NC(=O)[C@H](CC(N)=O)NC(=O)[C@H](C)NC(=O)[C@H](CC(N)=O)NC(=O)[C@H](N)Cc1ccc(O)cc1)C(=O)N[C@@H](Cc1ccccc1)C(N)=O
notes: also called Compound No. 235
B8: [D-Tyr1,Ala7,Arg(Me)9]MS10 (peptide)
peptide: [dY]NWNSFAL[Arg(Me)]F-NH2
modifications: N-terminus assumed
SMILES: CNC(=N)NCCC[C@H](NC(=O)[C@H](CC(C)C)NC(=O)[C@H](C)NC(=O)[C@H](Cc1ccccc1)NC(=O)[C@H](CO)NC(=O)[C@H](CC(N)=O)NC(=O)[C@H](Cc1c[nH]c2ccccc12)NC(=O)[C@H](CC(N)=O)NC(=O)[C@H](N)Cc1ccc(O)cc1)C(=O)N[C@@H](Cc1ccccc1)C(N)=O
notes: also called Compound No. 204
B9: [D-Tyr1,Ile3,AzaGly7,Arg(Me)9]MS10 (peptide)
peptide: [dY]NINSF[azaGly]L[Arg(Me)]F-NH2
modifications: N-terminus assumed
SMILES: CC[C@H](C)[C@H](NC(=O)[C@H](CC(N)=O)NC(=O)[C@H](N)Cc1ccc(O)cc1)C(=O)N[C@@H](CC(N)=O)C(=O)N[C@@H](CO)C(=O)N[C@@H](Cc1ccccc1)C(=O)NNC(=O)N[C@@H](CC(C)C)C(=O)N[C@@H](CCCNC(=N)NC)C(=O)N[C@@H](Cc1ccccc1)C(N)=O
notes: also called Compound No. 233
B10: [D-Tyr1,Phe(2Cl)3,AzaGly7,Arg(Me)9]MS10 (peptide)
peptide: [dY]N[Phe(2-Cl)]NSF[azaGly]L[Arg(Me)]F-NH2
modifications: N-terminus assumed
SMILES: CNC(=N)NCCC[C@H](NC(=O)[C@H](CC(C)C)NC(=O)NNC(=O)[C@H](Cc1ccccc1)NC(=O)[C@H](CO)NC(=O)[C@H](CC(N)=O)NC(=O)[C@H](Cc1ccccc1Cl)NC(=O)[C@H](CC(N)=O)NC(=O)[C@H](N)Cc1ccc(O)cc1)C(=O)N[C@@H](Cc1ccccc1)C(N)=O
notes: also called Compound No. 247
B11: [D-Tyr1,Phe(4Cl)3,AzaGly7,Arg(Me)9]MS10 (peptide)
peptide: [dY]N[Phe(4-Cl)]NSF[azaGly]L[Arg(Me)]F-NH2
modifications: N-terminus assumed
SMILES: CNC(=N)NCCC[C@H](NC(=O)[C@H](CC(C)C)NC(=O)NNC(=O)[C@H](Cc1ccccc1)NC(=O)[C@H](CO)NC(=O)[C@H](CC(N)=O)NC(=O)[C@H](Cc1ccc(Cl)cc1)NC(=O)[C@H](CC(N)=O)NC(=O)[C@H](N)Cc1ccc(O)cc1)C(=O)N[C@@H](Cc1ccccc1)C(N)=O
notes: also called Compound No. 249
B12: [D-Tyr1,Phe(4NH2)3,AzaGly7,Arg(Me)9]MS10 (peptide)
peptide: [dY]N[Phe(4-NH2)]NSF[azaGly]L[Arg(Me)]F-NH2
modifications: N-terminus assumed
SMILES: CNC(=N)NCCC[C@H](NC(=O)[C@H](CC(C)C)NC(=O)NNC(=O)[C@H](Cc1ccccc1)NC(=O)[C@H](CO)NC(=O)[C@H](CC(N)=O)NC(=O)[C@H](Cc1ccc(N)cc1)NC(=O)[C@H](CC(N)=O)NC(=O)[C@H](N)Cc1ccc(O)cc1)C(=O)N[C@@H](Cc1ccccc1)C(N)=O
notes: also called Compound No. 250
B13: [D-Tyr1,Thr2,Arg(Me)9]MS10 (peptide)
peptide: [dY]TWNSFGL[Arg(Me)]F-NH2
modifications: N-terminus assumed
SMILES: CNC(=N)NCCC[C@H](NC(=O)[C@H](CC(C)C)NC(=O)CNC(=O)[C@H](Cc1ccccc1)NC(=O)[C@H](CO)NC(=O)[C@H](CC(N)=O)NC(=O)[C@H](Cc1c[nH]c2ccccc12)NC(=O)[C@@H](NC(=O)[C@H](N)Cc1ccc(O)cc1)[C@@H](C)O)C(=O)N[C@@H](Cc1ccccc1)C(N)=O
notes: also called Compound No. 215
B14: [D-Tyr1,Thr3,Arg(Me)9]MS10 (peptide)
peptide: [dY]NTNSFGL[Arg(Me)]F-NH2
modifications: N-terminus assumed
SMILES: CNC(=N)NCCC[C@H](NC(=O)[C@H](CC(C)C)NC(=O)CNC(=O)[C@H](Cc1ccccc1)NC(=O)[C@H](CO)NC(=O)[C@H](CC(N)=O)NC(=O)[C@@H](NC(=O)[C@H](CC(N)=O)NC(=O)[C@H](N)Cc1ccc(O)cc1)[C@@H](C)O)C(=O)N[C@@H](Cc1ccccc1)C(N)=O
notes: also called Compound No. 205
B15: [D-Tyr1,Val3,Arg(Me)9]MS10 (peptide)
peptide: [dY]NVNSFGL[Arg(Me)]F-NH2
modifications: N-terminus assumed
SMILES: CNC(=N)NCCC[C@H](NC(=O)[C@H](CC(C)C)NC(=O)CNC(=O)[C@H](Cc1ccccc1)NC(=O)[C@H](CO)NC(=O)[C@H](CC(N)=O)NC(=O)[C@@H](NC(=O)[C@H](CC(N)=O)NC(=O)[C@H](N)Cc1ccc(O)cc1)C(C)C)C(=O)N[C@@H](Cc1ccccc1)C(N)=O
notes: also called Compound No. 229
B16: [D-Tyr1,Ser4,Arg(Me)9]MS10 (peptide)
peptide: [dY]NWSSFGL[Arg(Me)]F-NH2
modifications: N-terminus assumed
SMILES: CNC(=N)NCCC[C@H](NC(=O)[C@H](CC(C)C)NC(=O)CNC(=O)[C@H](Cc1ccccc1)NC(=O)[C@H](CO)NC(=O)[C@H](CO)NC(=O)[C@H](Cc1c[nH]c2ccccc12)NC(=O)[C@H](CC(N)=O)NC(=O)[C@H](N)Cc1ccc(O)cc1)C(=O)N[C@@H](Cc1ccccc1)C(N)=O
B17: [D-Tyr1,Gln4,Arg(Me)9]MS10 (peptide)
peptide: [dY]NWQSFGL[Arg(Me)]F-NH2
modifications: N-terminus assumed
SMILES: CNC(=N)NCCC[C@H](NC(=O)[C@H](CC(C)C)NC(=O)CNC(=O)[C@H](Cc1ccccc1)NC(=O)[C@H](CO)NC(=O)[C@H](CCC(N)=O)NC(=O)[C@H](Cc1c[nH]c2ccccc12)NC(=O)[C@H](CC(N)=O)NC(=O)[C@H](N)Cc1ccc(O)cc1)C(=O)N[C@@H](Cc1ccccc1)C(N)=O

molecular target: T1, human OT7T175 (metastin receptor) (human, UniProt Q969F8 1-398); test: competition with Cy-5 metastin (40-54) on hOT7T175-CHO cells, FMAT
T1 construct: expressed on CHO cells; also called hOT7T175; hOT7T175-expressed CHO cells
T1 sequence (Q969F8 whole entry L364H): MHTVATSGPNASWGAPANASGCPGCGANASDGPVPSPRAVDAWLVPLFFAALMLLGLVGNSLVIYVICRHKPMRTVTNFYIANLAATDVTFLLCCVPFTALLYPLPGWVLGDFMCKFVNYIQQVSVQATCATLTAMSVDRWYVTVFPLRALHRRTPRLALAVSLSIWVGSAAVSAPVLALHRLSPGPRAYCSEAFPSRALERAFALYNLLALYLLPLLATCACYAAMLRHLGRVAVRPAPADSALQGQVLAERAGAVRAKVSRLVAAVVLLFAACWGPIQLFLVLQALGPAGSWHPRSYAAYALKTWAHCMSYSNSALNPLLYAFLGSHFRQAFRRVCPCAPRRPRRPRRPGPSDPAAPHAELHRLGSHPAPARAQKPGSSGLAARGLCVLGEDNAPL

Binder	IC50 [nM]
[dY][dN]WNSF[azaGly]L[Arg(Me)]F-NH2 (also called Compound No. 237) [[D-Tyr1,D-Asn2,AzaGly7,Arg(Me)9]MS10]	27
B1	700
B2	410
B3	40
B4	11
B5	100
B6	48
B7	100
B8	680
[dY]QWNSFGL[Arg(Me)]F-NH2 (also called Compound No. 214) [[D-Tyr1,Gln2,Arg(Me)9]MS10]	390
B9	23
[dY]NFNSF[azaGly]L[Arg(Me)]F-NH2 (also called Compound No. 244) [[D-Tyr1,Phe3,AzaGly7,Arg(Me)9]MS10]	77
B10	45
[dY]N[Phe(3-Cl)]NSF[azaGly]L[Arg(Me)]F-NH2 (also called Compound No. 248) [[D-Tyr1,Phe(3Cl)3,AzaGly7,Arg(Me)9]MS10]	58
B11	150
B12	3.7
B13	250
B14	260
B15	130

molecular target: T1, human OT7T175 (metastin receptor); test: cell-based or functional assay

Binder	Ca ion level-increasing activity (FLIPR)
[dY][dN]WNSF[azaGly]L[Arg(Me)]F-NH2 (also called Compound No. 237) [[D-Tyr1,D-Asn2,AzaGly7,Arg(Me)9]MS10]	3 x Metastin (1-54)
B1	1 x Metastin (1-54)
B2	1 x Metastin (1-54)
B3	5 x Metastin (1-54)
B4	1 x Metastin (1-54)
B5	1 x Metastin (1-54)
B6	1 x Metastin (1-54)
B7	1 x Metastin (1-54)
B8	5 x Metastin (1-54)
[dY]QWNSFGL[Arg(Me)]F-NH2 (also called Compound No. 214) [[D-Tyr1,Gln2,Arg(Me)9]MS10]	10 x Metastin (1-54)
B9	1 x Metastin (1-54)
[dY]NFNSF[azaGly]L[Arg(Me)]F-NH2 (also called Compound No. 244) [[D-Tyr1,Phe3,AzaGly7,Arg(Me)9]MS10]	1 x Metastin (1-54)
B10	1 x Metastin (1-54)
[dY]N[Phe(3-Cl)]NSF[azaGly]L[Arg(Me)]F-NH2 (also called Compound No. 248) [[D-Tyr1,Phe(3Cl)3,AzaGly7,Arg(Me)9]MS10]	2 x Metastin (1-54)
B11	1 x Metastin (1-54)
B12	1 x Metastin (1-54)
B13	10 x Metastin (1-54)
B14	10 x Metastin (1-54)
B15	1 x Metastin (1-54)
[dY]NWNSFGL[Arg(n-Pr)]F-NH2 [[D-Tyr1,Arg(n-Pr)9]MS10]	0.5 x Metastin (1-54)
B16	0.5 x Metastin (1-54)
B17	0.5 x Metastin (1-54)
